Targets include CCL7 (human, UniProt P80098 24-99); CCL2 (human, UniProt P13500 24-99); CCL11 (human, UniProt P51671 24-97); CCL5_MOUSE (Mus musculus).
Common to all, as to assay: BLI
In a further assay the target is T1, CCL4_HUMAN (Homo sapiens).
T1 chain: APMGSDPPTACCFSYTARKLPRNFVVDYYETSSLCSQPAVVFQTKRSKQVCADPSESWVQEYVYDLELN

Another assay concerns the target T2, CCL5 (human, UniProt P13501 24-91).
T2 chain: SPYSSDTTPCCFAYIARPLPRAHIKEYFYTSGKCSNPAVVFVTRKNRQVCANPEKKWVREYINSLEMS

Assay [1] has as its target CCL13_HUMAN (Homo sapiens).
In a further assay the target is T3, CCL14_HUMAN (Homo sapiens).
T3 chain: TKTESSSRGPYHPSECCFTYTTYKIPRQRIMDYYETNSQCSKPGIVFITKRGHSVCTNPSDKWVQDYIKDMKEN

A further assay has as its target T4, CCL3 (human, UniProt P10147 24-92).
T4 chain: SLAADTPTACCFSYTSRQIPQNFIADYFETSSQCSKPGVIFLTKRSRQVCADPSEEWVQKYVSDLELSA

In a further assay the target is T5, CCL24_HUMAN (Homo sapiens).
T5 chain: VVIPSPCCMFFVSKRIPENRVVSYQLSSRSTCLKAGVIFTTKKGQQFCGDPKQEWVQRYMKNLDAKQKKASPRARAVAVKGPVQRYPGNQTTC

The target of assay [2] is T6, CCL18_HUMAN (Homo sapiens).
T6 chain: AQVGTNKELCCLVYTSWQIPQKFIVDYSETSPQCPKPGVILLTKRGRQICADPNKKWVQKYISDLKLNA

The target of another assay is T7, CCL16_HUMAN (Homo sapiens).
T7 chain: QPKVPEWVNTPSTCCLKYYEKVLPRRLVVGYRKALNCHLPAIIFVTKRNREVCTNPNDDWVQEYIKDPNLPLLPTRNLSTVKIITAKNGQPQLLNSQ

The next assay concerns the target T8, CCL8 (human, UniProt P80075 24-99).
T8 chain: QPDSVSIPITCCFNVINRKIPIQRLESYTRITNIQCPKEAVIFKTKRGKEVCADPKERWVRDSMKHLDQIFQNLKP

A further assay concerns the target T9, CCL22_HUMAN (Homo sapiens).
T9 chain: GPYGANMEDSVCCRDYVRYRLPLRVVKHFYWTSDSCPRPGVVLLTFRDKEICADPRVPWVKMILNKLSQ

The target of assay [3] is T10, CCL17_HUMAN (Homo sapiens).
T10 chain: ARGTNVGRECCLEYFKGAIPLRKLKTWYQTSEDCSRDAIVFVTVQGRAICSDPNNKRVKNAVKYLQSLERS

Assay [4] deals with T11, CCL4L1_HUMAN (Homo sapiens).
T11 chain: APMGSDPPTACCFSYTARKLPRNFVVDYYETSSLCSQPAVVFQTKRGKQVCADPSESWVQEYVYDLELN

For the next assay, the target named is T12, CCL19_HUMAN (Homo sapiens).
T12 chain: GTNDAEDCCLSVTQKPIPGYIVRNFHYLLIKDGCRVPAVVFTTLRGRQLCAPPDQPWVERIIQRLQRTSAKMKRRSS

A further assay addresses T13, CCL3L1_HUMAN (Homo sapiens).
T13 chain: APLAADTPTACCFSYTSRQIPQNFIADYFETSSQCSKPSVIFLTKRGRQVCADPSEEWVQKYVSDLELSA

For assay [5], the target named is CCL13_HUMAN (Homo sapiens). The source holds these as a separate data set.
Sequence of CCL13_HUMAN (Homo sapiens) (chain, as listed by the source): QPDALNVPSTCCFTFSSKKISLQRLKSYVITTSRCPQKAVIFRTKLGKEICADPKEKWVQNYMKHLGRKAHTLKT
In assay [6] the target is T6, CCL18_HUMAN.
The target in assay [7] is T10, CCL17_HUMAN.
The target of assay [8] is T11, CCL4L1_HUMAN.

Where two headings read alike, the source gives them in different places.

Sequence of CCL2 (P13500 24-99): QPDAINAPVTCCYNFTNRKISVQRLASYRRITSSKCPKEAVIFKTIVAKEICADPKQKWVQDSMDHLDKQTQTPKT
Sequence of CCL11 (P51671 24-97): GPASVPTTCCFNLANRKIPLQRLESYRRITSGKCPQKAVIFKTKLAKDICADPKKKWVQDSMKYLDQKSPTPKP
Sequence of CCL5_MOUSE (Mus musculus) (P30882 24-91): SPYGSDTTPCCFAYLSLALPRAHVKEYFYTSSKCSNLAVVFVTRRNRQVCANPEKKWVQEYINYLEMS
Sequence of CCL7 (P80098 24-99): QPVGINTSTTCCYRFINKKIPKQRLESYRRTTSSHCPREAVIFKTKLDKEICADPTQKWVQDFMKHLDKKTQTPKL

B1: P991_AMBCA, purified, C-terminal StrepII-8xHis tag (natural protein)
chain: ETGENGEGTTQPDYDNSTDYYNYEDFKCTCPAPHLNNTNGTVMKPIGCYYTCNVTRCTAPDTYPCYNLTEHQAKNLTTSPTTLCAVGNCDHGICVPNGTKELCFKAPNLEE
On to B1, for which the Kd (in general, the free concentration of one partner at which half of the binding sites on the other are occupied at equilibrium, for simple one-to-one binding) was 5.8 nM with CCL4_HUMAN; 1.5 nM with CCL5; 0.51 nM with CCL7; 0.42 nM in the assay with CCL13_HUMAN [1]; 12 nM with CCL2; 0.43 nM in the assay with CCL14_HUMAN. Besides, the dissociation constant Kd with CCL3 is 1.1 nM; with CCL24_HUMAN, 6.5 nM; with CCL18_HUMAN [2], 0.21 nM; with CCL16_HUMAN it was 1.3 nM; with CCL8 it was 8.8 nM; with CCL11, 3.4 nM. For the same molecule, the Kd in the assay with CCL22_HUMAN worked out at 4 nM; with CCL17_HUMAN [3], 7.7 nM; with CCL4L1_HUMAN [4] it was 0.83 nM; in the assay with CCL19_HUMAN, 14 nM; with CCL3L1_HUMAN it was 1.4 nM; with CCL13_HUMAN [5], 0.419 nM. Moreover, the dissociation constant (Kd) worked out at 0.209 nM with CCL18_HUMAN [6], 2.12 nM with CCL5_MOUSE, 7.66 nM in the assay with CCL17_HUMAN [7] and 0.827 nM with CCL4L1_HUMAN [8].

The values are drawn from paper PMC5487423 (2017).
